Assay results reported in article PMC2685030, “SmCL3, a Gastrodermal Cysteine Protease of the Human Blood Fluke Schistosoma mansoni” (PLoS Neglected Tropical Diseases, 2009).

Tested on: Cc1cc(=O)oc2cc(NC(=O)[C@H](CCCNC(=N)N)NC(=O)[C@H](Cc3ccccc3)NC(=O)OCc3ccccc3)ccc12
Experiment: purified protein
Conditions: pH 6.0 citrate-phosphate, 25°C, 3 nM enzyme

SmCL3 (Schistosoma mansoni) showed a Km of 20.2 µM.
